Values quoted from earlier work as cited in publication PMC6478893.

Target: Glu73 (UniProt position 86, GLTFTEKWNTD)

## Voltage-dependent anion channel 1 (VDAC1) (Mus musculus (inferred from the title of ref. 51, 'mVDAC1'; the article text says only 'VDAC1'))
  pKa: ~7.4
